Data: PMC12098869, “An mRNA-display derived cyclic peptide scaffold reveals the substrate binding interactions of an N-terminal cysteine oxidase” (Nature Communications, 2025)
“And” between values parts separate entries of the source, which are not always exact repeats. Identical values can stand only once.

What was measured:
Details in all cases: both partners purified
[1] = molecular target: T1, ADO-D206E, biotinylated (pQE80L-Navi-ADO) (human, UniProt Q96SZ5 1-270, D206E, biotin on the Avi tag); test: SPR; multi-cycle, equilibrium steady state affinity 1:1 binding model; biotinylated ADO or variant immobilised on a Biotin CAP chip (~2500-3000 RU), peptide injected; 4 °C; 20 mM HEPES pH 7.5, 500 mM NaCl, 10 mM DTT, 0.1% (v/v) tween-20; 50 μL/minute
T1 construct: Tag as in Dm1; source: E. coli Rosetta2(DE3), purified (Ni-NTA, SEC); not shown: Avi tag, N-terminal, kept; His6, N-terminal, kept
T1 sequence (looked up): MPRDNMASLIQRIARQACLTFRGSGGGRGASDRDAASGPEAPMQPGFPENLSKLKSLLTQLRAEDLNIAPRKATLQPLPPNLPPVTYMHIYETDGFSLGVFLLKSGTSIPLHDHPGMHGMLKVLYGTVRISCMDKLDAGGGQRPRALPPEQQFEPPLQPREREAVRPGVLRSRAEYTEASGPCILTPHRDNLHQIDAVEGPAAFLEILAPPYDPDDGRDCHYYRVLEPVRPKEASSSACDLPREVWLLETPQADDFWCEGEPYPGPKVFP
Method in brief: (§1)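 Biotinylated full-length human ADO (wild type or engineered forms) was made in E. coli with a His tag, then purified by nickel affinity and gel filtration. It was captured on a Biotin CAP chip at about 2500–3000 RU in a Biacore T200, and peptides were flowed over it. The run was at 4 °C in HEPES pH 7.5 buffer with 500 mM NaCl, DTT and tween-20, at 50 μL/minute. Kd came from a 1:1 steady-state fit of multi-cycle equilibrium responses.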

[2] = molecular target: T2, ADO-F256A, biotinylated (pQE80L-Navi-ADO) (human, UniProt Q96SZ5 1-270, F256A, biotin on the Avi tag); test: as above
T2 construct: Tag as in Dm1; source: E. coli Rosetta2(DE3), purified (Ni-NTA, SEC); not shown: Avi tag, N-terminal, kept; His6, N-terminal, kept
T2 sequence (looked up): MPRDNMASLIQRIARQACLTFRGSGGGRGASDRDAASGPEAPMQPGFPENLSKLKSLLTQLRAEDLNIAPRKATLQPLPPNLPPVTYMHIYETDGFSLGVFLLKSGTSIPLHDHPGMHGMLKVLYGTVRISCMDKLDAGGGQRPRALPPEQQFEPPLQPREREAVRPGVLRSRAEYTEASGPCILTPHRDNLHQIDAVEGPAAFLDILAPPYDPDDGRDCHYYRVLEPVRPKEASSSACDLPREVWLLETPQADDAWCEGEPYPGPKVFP
Method in brief: as §1

[3] = molecular target: T3, ADO-I109A, N-terminally His-tagged and biotinylated (human, UniProt Q96SZ5 1-270, I109A, biotin (biotinylated during expression)); test: SPR; biotinylated ADO or ADO mutant immobilised on a Biotin CAP chip (~2500-3000 RU), substrate peptide injected; Biacore T200, 4 °C; 20 mM HEPES pH 7.5, 500 mM NaCl, 10 mM DTT, 0.1% tween-20; 50 µL/minute; multi-cycle or single-cycle mode not given; each cell is one of three independent measurements
T3 construct: 2-aminoethanethiol dioxygenase (ADO), human, UniProt Q96SZ5, full length, site-directed mutant; source: E. coli Rosetta2(DE3), purified (Ni-NTA, SEC); not shown: biotinylation tag (from the vector pQE80L-Navi), N-terminal, kept
T3 sequence (looked up): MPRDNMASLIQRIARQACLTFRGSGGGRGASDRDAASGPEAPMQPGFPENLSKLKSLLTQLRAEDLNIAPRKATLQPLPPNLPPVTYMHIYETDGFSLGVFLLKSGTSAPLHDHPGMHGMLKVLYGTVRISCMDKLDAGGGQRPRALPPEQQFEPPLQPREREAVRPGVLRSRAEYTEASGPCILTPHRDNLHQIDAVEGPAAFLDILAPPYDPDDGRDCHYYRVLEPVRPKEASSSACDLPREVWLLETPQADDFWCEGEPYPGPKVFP

[4] = molecular target: T4, ADO-Y87F, N-terminally His-tagged and biotinylated (human, UniProt Q96SZ5 1-270, Y87F, biotin (biotinylated during expression)); test: as above
T4 construct: 2-aminoethanethiol dioxygenase (ADO), human, UniProt Q96SZ5, full length, site-directed mutant; source: E. coli Rosetta2(DE3), purified (Ni-NTA, SEC); not shown: biotinylation tag (from the vector pQE80L-Navi), N-terminal, kept
T4 sequence (looked up): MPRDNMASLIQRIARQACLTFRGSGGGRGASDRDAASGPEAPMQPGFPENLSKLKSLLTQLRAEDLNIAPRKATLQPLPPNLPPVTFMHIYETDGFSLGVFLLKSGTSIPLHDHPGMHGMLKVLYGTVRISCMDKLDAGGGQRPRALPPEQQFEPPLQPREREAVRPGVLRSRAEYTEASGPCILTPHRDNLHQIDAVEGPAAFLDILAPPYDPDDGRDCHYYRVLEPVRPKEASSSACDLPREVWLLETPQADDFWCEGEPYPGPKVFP

[5] = molecular target: T5, ADO-Y212A, N-terminally His-tagged and biotinylated (human, UniProt Q96SZ5 1-270, Y212A, biotin (biotinylated during expression)); test: as above
T5 construct: 2-aminoethanethiol dioxygenase (ADO), human, UniProt Q96SZ5, full length, site-directed mutant; source: E. coli Rosetta2(DE3), purified (Ni-NTA, SEC); not shown: biotinylation tag (from the vector pQE80L-Navi), N-terminal, kept
T5 sequence (looked up): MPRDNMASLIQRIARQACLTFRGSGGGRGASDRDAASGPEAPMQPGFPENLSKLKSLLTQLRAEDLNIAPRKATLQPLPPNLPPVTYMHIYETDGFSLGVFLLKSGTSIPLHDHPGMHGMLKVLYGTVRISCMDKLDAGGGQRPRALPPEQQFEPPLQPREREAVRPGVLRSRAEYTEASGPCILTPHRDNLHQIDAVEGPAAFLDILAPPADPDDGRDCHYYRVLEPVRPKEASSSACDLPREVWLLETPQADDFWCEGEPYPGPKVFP

B1: IL32_(2-15), synthetic peptide corresponding to the methionine excised N-terminus of IL32, residues 2-15 (peptide, UniProt P24001 2-15, looked up)
peptide: CFPKVLSDDMKKLK
notes: Interleukin 32 (IL32), residues 2-15, N-terminal Cys; also called IL32 peptide; source: synthetic peptide
[1]
  Kd: 1300 nM
[2]
  Kd: 870 nM

B2: RGS5(2-15), synthetic peptide corresponding to the methionine excised N-terminus of RGS5, residues 2 to 15 (peptide, UniProt O15539 2-15, looked up)
peptide: CKGLAALPHSCLER
notes: regulator of G-protein signalling 5 (RGS5), residues 2 to 15 (N-terminal Cys exposed); UniProt O15539 is printed for the full-length human protein; also called 14-mer RGS5; source: synthetic peptide
[3]
  Kd: 1120 nM and 1240 nM and 1430 nM
[4]
  Kd: 339 nM (2×) and 336 nM
[5]
  Kd: 66500 nM and 90300 nM and 63100 nM
